The target of assay [1] is wild-type green fluorescent protein (GFP) (Aequorea victoria) [GFP: P42212]. As to the kind of experiment: single-molecule photobleaching step counting and fluorescence intensity distribution (TIRFM); purified protein, 0.17 μg/mL solution, single spots imaged on the coverslip surface; 473-nm laser; self-association (monomer to dimer).
For assay [2] the target is unchanged. As to the kind of experiment: single-molecule photobleaching step counting and fluorescence intensity distribution (TIRFM); purified protein, 0.57 μg/mL solution, single spots imaged on the coverslip surface; 473-nm laser; self-association (monomer to dimer).

From PMC6471090 come the findings set out here.

As usually defined, the stoichiometry N is a count of units in the complex or per binding partner.

“wild-type green fluorescent protein (GFP) (from UniProt P42212 1-238) (natural protein)”: in assay [1], the percent of spots with one-step photobleaching (monomers) was 96.5%, the percent of spots with two-step photobleaching (dimers) was 3.5% and the stoichiometry N was determined as 2. Besides, in assay [2], the percent of spots in the major intensity population (monomers) is 97% and the percent of spots with two-step photobleaching (dimers) turned out to be 8.6%.
